In paper PMC5509884, “Dampened activity of ryanodine receptor channels in mutant skeletal muscle lacking TRIC‐A” (The Journal of Physiology, 2017):

Target: the molecule itself
Experiment: SDS-PAGE immunoblot of the purified protein; anti-PA tag immunoblot of the fractions of the PA-tag column purification of recombinant TRIC-A from CHO cells (buffers with 0.1% DM); bands marked as monomer, dimer and trimer

B1: mouse TRIC-A (type A trimeric intracellular cation channel), full length, with an N-terminal PA-tag (natural protein, UniProt Q3TMP8 1-298, looked up)
chain: MDLMSALSLGELALSFSRVPLFPVFDLSYFIVSIIYLKYEPGAVELSRRHPVASWLCAMLHCFGSYILADLLLGEPIIDYFSNSSSILLASGVWYLIFFCPLDLFYKCVCFLPVKLIFVAMKEVVRVRKIAVGIHHAHHHYHHGWFIMIATGWVKGSGVALLSNVEQLLRGVWKPETNEILHMSFPTKASLYGAILFTLQQTRWLPVSKASLIFVFTMFMVSCKVFLTATHSHSSPFDILEGYICPVLFGATWGGDHHHDNHGAPHGMGLGTQHSGLPAKAKEELGEGSRKKKTKKAD
notes: TRIC-A (trimeric intracellular cation channel type A), mouse, full-length cDNA; The introduction says, citing other work, that TRIC channels are trimers of three monomers of about 30 kDa; also called purified TRIC-A; recombinant TRIC-A; not shown: PA-tag, N-terminal, kept
  binding result: binds
